Test results reported in patent US20210388087A1 (Chugai, published 2021).
Where a chain is given by its changes, count along the chain named. Numbers in names are those of the source. One block for each binder: values may come before it.

Molecular target: T1, CD3 epsilon homodimer protein (UniProt P07766 23-126)
T1 construct: immobilized on Sensor chip CM4 by amine coupling; also called CD3 (CD3 epsilon)
Test: SPR (Biacore T200), CD3 epsilon homodimer on CM4 chip, one-arm antibody as analyte, 25 C;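 note: homodimer attached to the sensor surface via amine coupling, HBS-EP+ used as running buffer during binding runs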
Protocol: An appropriate amount of CD3 epsilon homodimer protein was immobilized onto Sensor chip CM4 (GE Healthcare Japan Corp.) by the amine coupling method. Then, the antibody having an appropriate concentration was injected thereto as an analyte and allowed to interact with the CD3 epsilon homodimer protein on the sensor chip. Then, the sensor chip was regenerated by the injection of 10 mmol/L glycine-HCl (pH 1.5). The assay was conducted at 25 degrees C., and HBS-EP+(GE Healthcare Japan Corp.) was used as a running buffer. […] Each parameter was calculated using Biacore T200 Evaluation Software (GE Healthcare Japan Corp.).

T1 sequence (P07766 23-126): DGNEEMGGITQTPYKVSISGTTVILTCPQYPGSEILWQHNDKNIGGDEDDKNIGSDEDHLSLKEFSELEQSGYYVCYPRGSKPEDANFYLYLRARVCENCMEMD

ratio of amounts bound (altered form / CE115HA000): 0.17
B3: CE115HA000 H96Y one-arm antibody (antibody, human IgG1, kappa, L234A L235A, N297A, name in Kabat numbering)
heavy: QVQLVESGGGVVQPGRSLRLSCAASGFTFSNAWMHWVRQAPGKGLEWVAQIKAKSNNYATYYAESVKGRFTISRDDSKNSLYLQMNSLKTEDTAVYYCRYVYYGAYYGVDAWGQGTTVTVSSASTKGPSVFPLAPSSKSTSGGTAALGCLVKDYFPEPVTVSWNSGALTSGVHTFPAVLQSSGLYSLSSVVTVPSSSLGTQTYICNVNHKPSNTKVDKKVEPKSCDKTHTCPPCPAPEAAGGPSVFLFPPKPKDTLMISRTPEVTCVVVDVSHEDPEVKFNWYVDGVEVHNAKTKPREEQYASTYRVVSVLTVLHQDWLNGKEYKCKVSNKALPAPIEKTISKAKGQPREPQVYTLPPSRCELTKNQVSLSCAVKGFYPSDIAVEWESNGQPENNYKTTPPVLDSDGSFFLVSKLTVDKSRWQQGNVFSCSVMHEALHNHYTQKSLSLSPDYKDDDDK
chain: EPKSSDKTHTCPPCPAPELLGGPSVFLFPPKPKDTLMISRTPEVTCVVVDVSHEDPEVKFNWYVDGVEVHNAKTKPREEQYNSTYRVVSVLTVLHQDWLNGKEYKCKVSNKALPAPIEKTISKAKGQPREPQVCTLPPSRDELTKNQVSLWCLVKGFYPSDIAVEWESNGQPENNYKTTPPVLDSDGSFFLYSKLTVDKSRWQQGNVFSCSVMHEALHNRYTQKSLSLSP
light: DIVMTQSPLSLPVTPGEPASISCRSSQSLVHSNRNTYLHWYQQKPGQAPRLLIYKVSNRFSGVPDRFSGSGSGTDFTLKISRVEAEDVGVYYCGQGTQVPYTFGQGTKLEIKRTVAAPSVFIFPPSDEQLKSGTASVVCLLNNFYPREAKVQWKVDNALQSGNSQESVTEQDSKDSTYSLSSTLTLSKADYEKHKVYACEVTHQGLSSPVTKSFNRGEC

ratio of amounts bound (altered form / CE115HA000): 0.33
B4: CE115HA000 K52I one-arm antibody (antibody, human IgG1, kappa, L234A L235A, N297A, name in Kabat numbering)
heavy: B3 heavy with K52I, Y102H
chain: B3 chain
light: B3 light

ratio of amounts bound (altered form / CE115HA000): 0.26
B7: CE115HA000 K52E one-arm antibody (antibody, human IgG1, kappa, L234A L235A, N297A, name in Kabat numbering)
heavy: B3 heavy with K52E, Y102H
chain: B3 chain
light: B3 light

ratio of amounts bound (altered form / CE115HA000): 0.44
B10: CE115HA000 H96S one-arm antibody (antibody, human IgG1, kappa, L234A L235A, N297A, name in Kabat numbering)
heavy: B3 heavy with Y102S
chain: B3 chain
light: B3 light

ratio of amounts bound (altered form / CE115HA000): 0.34
B11: CE115HA000 K52N one-arm antibody (antibody, human IgG1, kappa, L234A L235A, N297A, name in Kabat numbering)
heavy: B3 heavy with K52N, Y102H
chain: B3 chain
light: B3 light

ratio of amounts bound (altered form / CE115HA000): 0.9
B12: CE115HA000 K43E one-arm antibody (antibody, human IgG1, kappa, L234A L235A, N297A, name in Kabat numbering)
heavy: B3 heavy with K43E, Y102H
chain: B3 chain
light: B3 light

ratio of amounts bound (altered form / CE115HA000): 0.25
B13: CE115HA000 K52D one-arm antibody (antibody, human IgG1, kappa, L234A L235A, N297A, name in Kabat numbering)
heavy: B3 heavy with K52D, Y102H
chain: B3 chain
light: B3 light

ratio of amounts bound (altered form / CE115HA000): 0.99
B14: CE115HA000 K43Q one-arm antibody (antibody, human IgG1, kappa, L234A L235A, N297A, name in Kabat numbering)
heavy: B3 heavy with K43Q, Y102H
chain: B3 chain
light: B3 light

ratio of amounts bound (altered form / CE115HA000): 0.29
B15: CE115HA000 I51D one-arm antibody (antibody, human IgG1, kappa, L234A L235A, N297A, name in Kabat numbering)
heavy: B3 heavy with I51D, Y102H
chain: B3 chain
light: B3 light

ratio of amounts bound (altered form / CE115HA000): 0.22
B19: CE115HA000 K52H one-arm antibody (antibody, human IgG1, kappa, L234A L235A, N297A, name in Kabat numbering)
heavy: B3 heavy with K52H, Y102H
chain: B3 chain
light: B3 light

ratio of amounts bound (altered form / CE115HA000): 0.17
B20: CE115HA000 K52F one-arm antibody (antibody, human IgG1, kappa, L234A L235A, N297A, name in Kabat numbering)
heavy: B3 heavy with K52F, Y102H
chain: B3 chain
light: B3 light

ratio of amounts bound (altered form / CE115HA000): 0.55
B22: CE115HA000 I51E one-arm antibody (antibody, human IgG1, kappa, L234A L235A, N297A, name in Kabat numbering)
heavy: B3 heavy with I51E, Y102H
chain: B3 chain
light: B3 light

The next lines start with the binder.

B1: CE115HA000 H35S one-arm antibody (antibody, human IgG1, kappa, L234A L235A, N297A, name in Kabat numbering)
heavy: B3 heavy with H35S, Y102H
chain: B3 chain
light: B3 light
ratio of amounts bound (altered form / CE115HA000): 0.23

B2: CE115HA000 H96G one-arm antibody (antibody, human IgG1, kappa, L234A L235A, N297A, name in Kabat numbering)
heavy: B3 heavy with Y102G
chain: B3 chain
light: B3 light
ratio of amounts bound (altered form / CE115HA000): 0.43

B5: CE115HA000 H96L one-arm antibody (antibody, human IgG1, kappa, L234A L235A, N297A, name in Kabat numbering)
heavy: B3 heavy with Y102L
chain: B3 chain
light: B3 light
ratio of amounts bound (altered form / CE115HA000): 0.14

B6: CE115HA000 H96Q one-arm antibody (antibody, human IgG1, kappa, L234A L235A, N297A, name in Kabat numbering)
heavy: B3 heavy with Y102Q
chain: B3 chain
light: B3 light
ratio of amounts bound (altered form / CE115HA000): 0.42

B8: CE115HA000 H35V one-arm antibody (antibody, human IgG1, kappa, L234A L235A, N297A, name in Kabat numbering)
heavy: B3 heavy with H35V, Y102H
chain: B3 chain
light: B3 light
ratio of amounts bound (altered form / CE115HA000): 0.22

B9: CE115HA000 H35W one-arm antibody (antibody, human IgG1, kappa, L234A L235A, N297A, name in Kabat numbering)
heavy: B3 heavy with H35W, Y102H
chain: B3 chain
light: B3 light
ratio of amounts bound (altered form / CE115HA000): 0.22

B16: CE115HA000 H35Y one-arm antibody (antibody, human IgG1, kappa, L234A L235A, N297A, name in Kabat numbering)
heavy: B3 heavy with H35Y, Y102H
chain: B3 chain
light: B3 light
ratio of amounts bound (altered form / CE115HA000): 0.16

B17: CE115HA000 H35T one-arm antibody (antibody, human IgG1, kappa, L234A L235A, N297A, name in Kabat numbering)
heavy: B3 heavy with H35T, Y102H
chain: B3 chain
light: B3 light
ratio of amounts bound (altered form / CE115HA000): 0.26

B18: CE115HA000 H96P one-arm antibody (antibody, human IgG1, kappa, L234A L235A, N297A, name in Kabat numbering)
heavy: B3 heavy with Y102P
chain: B3 chain
light: B3 light
ratio of amounts bound (altered form / CE115HA000): 0.12

B21: CE115HA000 H96K one-arm antibody (antibody, human IgG1, kappa, L234A L235A, N297A, name in Kabat numbering)
heavy: B3 heavy with Y102K
chain: B3 chain
light: B3 light
ratio of amounts bound (altered form / CE115HA000): 0.38

B23: CE115HA000 H96R one-arm antibody (antibody, human IgG1, kappa, L234A L235A, N297A, name in Kabat numbering)
heavy: B3 heavy with Y102R
chain: B3 chain
light: B3 light
ratio of amounts bound (altered form / CE115HA000): 0.46
